{"source": "patent US20250074973A1", "about": "(ANNEXON, published 2025)", "binders": {"B1": {"name": "full-length C1q antibody (heavy chain SEQ ID NO: 14; light chain SEQ ID NO: 40) (antibody, human IgG4 S228P, kappa)", "heavy": "not shown", "light": "DVQITQSPSSLSASLGERATINCRASKSINKYLAWYQQKPGKAPKLLIYSGSTLQSGIPARFSGSGSGTDFTLTISSLEPEDFAMYYCQQHNEYPLTFGQGTKLEIKRTVAAPSVFIFPPSDEQLKSGTASVVCLLNNFYPREAKVQWKVDNALQSGNSQESVTEQDSKDSTYSLSSTLTLSKADYEKHKVYACEVTHQGLSSPVTKSFNRGEC", "notes": "also called full-length anti-C1q antibody; anti-C1q antibody"}}, "target": "T1, human C1q (complement factor C1q, chains A, B and C) (Homo sapiens, UniProt P02745 23-245; P02746 28-253; P02747 29-245)", "T1 construct": "Endogenous C1q in serum and CSF of the treated human subjects", "T1 sequence (P02745 23-245 limits assumed, chain 1 of 3)": "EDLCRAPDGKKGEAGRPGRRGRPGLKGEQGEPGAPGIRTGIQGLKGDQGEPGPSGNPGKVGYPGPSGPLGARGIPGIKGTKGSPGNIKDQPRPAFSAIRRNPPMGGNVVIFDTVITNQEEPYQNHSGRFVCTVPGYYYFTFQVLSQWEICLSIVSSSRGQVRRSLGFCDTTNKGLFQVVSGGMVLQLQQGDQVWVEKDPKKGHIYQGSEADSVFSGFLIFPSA", "T1 sequence (P02746 28-253 limits assumed, chain 2 of 3)": "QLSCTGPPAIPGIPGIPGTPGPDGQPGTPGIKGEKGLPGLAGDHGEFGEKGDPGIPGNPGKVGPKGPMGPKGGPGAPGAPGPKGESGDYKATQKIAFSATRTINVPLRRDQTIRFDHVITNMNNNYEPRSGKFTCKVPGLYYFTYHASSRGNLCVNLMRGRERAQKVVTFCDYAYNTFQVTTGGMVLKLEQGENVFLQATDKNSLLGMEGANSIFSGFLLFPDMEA", "T1 sequence (P02747 29-245 limits assumed, chain 3 of 3)": "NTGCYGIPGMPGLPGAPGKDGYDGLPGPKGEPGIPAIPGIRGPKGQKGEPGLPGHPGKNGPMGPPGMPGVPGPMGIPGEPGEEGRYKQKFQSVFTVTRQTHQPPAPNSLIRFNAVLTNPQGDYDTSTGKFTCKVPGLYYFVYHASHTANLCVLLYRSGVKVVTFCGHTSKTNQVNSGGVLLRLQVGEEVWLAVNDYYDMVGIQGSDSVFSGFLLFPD", "experiment": "in vivo target engagement (PK/PD) in serum and CSF of dosed HD patients", "data": [{"binder": "B1", "values": [{"measurement": "binding result", "result": "binds"}]}]}
